Data from patent publication US20260016475A1 (VENTANA MEDICAL SYSTEMS, published 2026).
Where no end group is shown, it is not given here.

Assays:
human TAP2 protein = target: T1, human TAP2 protein (human, UniProt Q03519 1-686); assay: western blot of lysates of HEK293T cells expressing TAP2
T1 construct: It is an intracellular protein; also called recombinant TAP2
T1 sequence: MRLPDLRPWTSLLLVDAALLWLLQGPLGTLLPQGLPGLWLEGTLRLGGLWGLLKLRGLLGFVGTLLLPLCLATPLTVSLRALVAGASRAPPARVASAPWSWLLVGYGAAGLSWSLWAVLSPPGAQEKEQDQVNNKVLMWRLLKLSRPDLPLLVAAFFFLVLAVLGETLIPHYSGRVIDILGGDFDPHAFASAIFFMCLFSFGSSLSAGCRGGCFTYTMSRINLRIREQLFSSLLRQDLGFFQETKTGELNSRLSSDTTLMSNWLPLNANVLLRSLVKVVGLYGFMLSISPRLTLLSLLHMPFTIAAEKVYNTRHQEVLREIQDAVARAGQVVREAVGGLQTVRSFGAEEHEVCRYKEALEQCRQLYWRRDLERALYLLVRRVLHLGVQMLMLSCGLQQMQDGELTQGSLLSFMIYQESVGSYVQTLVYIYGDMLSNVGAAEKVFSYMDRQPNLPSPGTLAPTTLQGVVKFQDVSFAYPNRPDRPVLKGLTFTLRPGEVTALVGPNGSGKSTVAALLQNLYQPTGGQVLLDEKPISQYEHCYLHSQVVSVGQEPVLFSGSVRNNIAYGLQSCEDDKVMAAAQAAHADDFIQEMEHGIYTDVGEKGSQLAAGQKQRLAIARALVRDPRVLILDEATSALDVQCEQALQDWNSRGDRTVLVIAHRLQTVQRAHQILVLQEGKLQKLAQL
Description: Rabbit monoclonal antibody S14H22L21 was applied onto formalin fixed paraffin embedded tissue samples to assess the staining patterns of the antibody by IHC as described in Example 1. Tissue samples included the positive and negative controls listed in Example 1, 8 ccRCC tissues, and a tour of tumor array (see FIGS. 4A-4B and 5A-5C). Western blot analysis was carried out to assess the specificity of S14H22L21. Cell lysates from HEK293T cells, HEK293T cells expressing TAP1, and HEK293T cells expressing TAP2 were analyzed alongside lysates from a negative control cell line (RPMI6226) and two positive control cell lines (HDLM2 and U266B1).

[1] = target: T2, human TAP1 peptide DGKPLPQYEHRYLHR (human, also: conjugated to KLH for immunisation); assay: raised against the peptide; ELISA screen of antibody-expressing cells on the immunogenic peptide (Example 1)
T2 construct: Synthetic peptide, conjugated to KLH for immunisation; also called immunogenic peptide
T2 peptide: DGKPLPQYEHRYLHR

human TAP1 protein = target: T3, human TAP1 protein (human, UniProt Q03518 1-748); assay: IHC on sections of cell blocks of 293T, 293T-TAP1 and 293T-TAP2 cells
T3 construct: It is an intracellular protein; also called recombinant TAP1
T3 sequence: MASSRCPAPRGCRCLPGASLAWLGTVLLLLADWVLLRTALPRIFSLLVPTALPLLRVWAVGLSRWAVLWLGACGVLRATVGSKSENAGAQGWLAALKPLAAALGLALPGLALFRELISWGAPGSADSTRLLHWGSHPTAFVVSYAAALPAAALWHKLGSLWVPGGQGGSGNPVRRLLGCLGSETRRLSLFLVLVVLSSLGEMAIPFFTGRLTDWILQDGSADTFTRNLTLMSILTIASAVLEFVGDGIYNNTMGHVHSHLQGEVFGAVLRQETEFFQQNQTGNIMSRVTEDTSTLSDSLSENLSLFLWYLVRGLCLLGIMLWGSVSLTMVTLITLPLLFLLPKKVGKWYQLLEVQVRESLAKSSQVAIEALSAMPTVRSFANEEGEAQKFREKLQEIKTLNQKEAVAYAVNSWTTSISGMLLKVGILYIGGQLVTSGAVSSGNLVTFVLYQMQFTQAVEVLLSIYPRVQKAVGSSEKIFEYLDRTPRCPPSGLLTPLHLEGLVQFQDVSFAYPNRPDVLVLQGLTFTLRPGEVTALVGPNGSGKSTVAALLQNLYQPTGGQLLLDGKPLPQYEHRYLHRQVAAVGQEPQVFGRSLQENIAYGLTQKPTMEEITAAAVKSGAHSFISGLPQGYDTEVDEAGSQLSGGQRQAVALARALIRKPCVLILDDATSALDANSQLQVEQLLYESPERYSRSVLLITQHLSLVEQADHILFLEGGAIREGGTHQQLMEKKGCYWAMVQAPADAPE
Description: anti-TAP1 rabbit monoclonal primary antibodies were directed against the sequence […] (SEQ ID NO: 23), which represents amino acids 625-640 of human TAP1. The peptide was synthesized and covalently conjugated to keyhole limpet haemocyanin (KLH) carrier protein. Rabbits were immunized with KLH-conjugated peptide with complete Freund's adjuvant followed by a series of booster injections of the same immunogen in incomplete Freund's adjuvant. The rabbit that produced the best positive polyclonal antibody by immunohistochemistry (IHC) was chosen for monoclonal development. IHC staining was performed on a BenchMark automated slide stainer at Roche Diagnostics in Tucson, AZ. The staining procedure included deparaffinization, pretreatment using standard Cell Conditioning 1, incubation with antibody (TAP1: 0.925 μg/mL) at 36° C. for 16 min. […] TAP1 was detected by immunohistochemistry (IHC) using OptiView Universal DAB detection kit (Ventana).
Rabbit monoclonal antibody S14H22L21 was applied onto formalin fixed paraffin embedded tissue samples to assess the staining patterns of the antibody by IHC as described in Example 1. […] Cell lysates from HEK293T cells, HEK293T cells expressing TAP1, and HEK293T cells expressing TAP2 were analyzed alongside lysates from a negative control cell line (RPMI6226) and two positive control cell lines (HDLM2 and U266B1).

binding result (human TAP2 protein): no binding | binding result [1]: binds | binding result (human TAP1 protein): binds
B1: rabbit anti-human TAP1 monoclonal antibody S14H22L21 (antibody, V domains shown)
VH: QSVKESEGGLFKPTDTLTLTCTVSGFSLSSYEVIWVRQAPGKGLEWIGNIGWRDTTFYANWAKSRSTFTRDTNLNTVTLKMTSLTAADTATYFCARDNGYFGIDYWGPGTLVTVSS
VL: DIVMTQTPASVEAAVGGTVTIKCQASQSISNYLAWYQQKPGQPPKLLIYKASTLASGVPSRFSGSGSGTQFTLTISGVQCDDAATYYCQQDFNYRNIENVFGGGTGVVVK
notes: Recombinant rabbit monoclonal, purified on Protein A; also called clone S14H22L21; TAP1 antibody
